Patent US20250340643A1 (AstraZeneca / MedImmune, published 2025)

Tests used:
[1] = biological target: T1, CTLA4 on the cells of the reporter gene bioassay (human, UniProt P16410 36-223); experiment: cell-based or functional assay
T1 sequence (looked up): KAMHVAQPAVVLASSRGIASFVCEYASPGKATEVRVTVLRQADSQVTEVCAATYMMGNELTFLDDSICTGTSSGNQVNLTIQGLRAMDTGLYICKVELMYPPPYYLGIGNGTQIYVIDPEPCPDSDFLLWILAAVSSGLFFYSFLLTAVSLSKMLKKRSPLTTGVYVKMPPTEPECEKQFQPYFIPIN

[2] = biological target: T1, CTLA4 on the cells of the reporter gene …; experiment: cell-based or functional assay; remark: listed apart in the source

Binder | Relative Potency (%) (reporter gene assay) [1] | Relative Potency (%) [2] [%]
Tremelimumab stressed at 40° C., 0 Months (fragment study) (antibody, human IgG2, kappa, V domains shown) VH: QVQLVESGGGVVQPGRSLRLSCAASGFTFSSYGMHWVRQAPGKGLEWVAVIWYDGSNKYYADSVKGRFTISRDNSKNTLYLQMNSLRAEDTAVYYCARDPRGATLYYYYYGMDVWGQGTTVTVSS VL: DIQMTQSPSSLSASVGDRVTITCRASQSINSYLDWYQQKPGKAPKLLIYAASSLQSGVPSRFSGSGSGTDFTLTISSLQPEDFATYYCQQYYSTPFTFGPGTKVEIKR | 95 | –
Tremelimumab stressed at 40° C., 2 Months (fragment study) (antibody, human IgG2, kappa, V domains shown) VH: QVQLVESGGGVVQPGRSLRLSCAASGFTFSSYGMHWVRQAPGKGLEWVAVIWYDGSNKYYADSVKGRFTISRDNSKNTLYLQMNSLRAEDTAVYYCARDPRGATLYYYYYGMDVWGQGTTVTVSS VL: DIQMTQSPSSLSASVGDRVTITCRASQSINSYLDWYQQKPGKAPKLLIYAASSLQSGVPSRFSGSGSGTDFTLTISSLQPEDFATYYCQQYYSTPFTFGPGTKVEIKR | 97 | –

The next lines start with the values.

Relative Potency (%) (reporter gene assay) [1] | Relative Potency (%) [2] [%] | Binder
– | 98 | Tremelimumab, Prep SEC monomer fraction (antibody, human IgG2, kappa, V domains shown) VH: QVQLVESGGGVVQPGRSLRLSCAASGFTFSSYGMHWVRQAPGKGLEWVAVIWYDGSNKYYADSVKGRFTISRDNSKNTLYLQMNSLRAEDTAVYYCARDPRGATLYYYYYGMDVWGQGTTVTVSS VL: DIQMTQSPSSLSASVGDRVTITCRASQSINSYLDWYQQKPGKAPKLLIYAASSLQSGVPSRFSGSGSGTDFTLTISSLQPEDFATYYCQQYYSTPFTFGPGTKVEIKR
97 | – | Tremelimumab stressed at 40° C., 3 Months (fragment study) (antibody, human IgG2, kappa, V domains shown) VH: QVQLVESGGGVVQPGRSLRLSCAASGFTFSSYGMHWVRQAPGKGLEWVAVIWYDGSNKYYADSVKGRFTISRDNSKNTLYLQMNSLRAEDTAVYYCARDPRGATLYYYYYGMDVWGQGTTVTVSS VL: DIQMTQSPSSLSASVGDRVTITCRASQSINSYLDWYQQKPGKAPKLLIYAASSLQSGVPSRFSGSGSGTDFTLTISSLQPEDFATYYCQQYYSTPFTFGPGTKVEIKR
– | 73 | Tremelimumab, Prep SEC aggregate fraction (antibody, human IgG2, kappa, V domains shown) VH: QVQLVESGGGVVQPGRSLRLSCAASGFTFSSYGMHWVRQAPGKGLEWVAVIWYDGSNKYYADSVKGRFTISRDNSKNTLYLQMNSLRAEDTAVYYCARDPRGATLYYYYYGMDVWGQGTTVTVSS VL: DIQMTQSPSSLSASVGDRVTITCRASQSINSYLDWYQQKPGKAPKLLIYAASSLQSGVPSRFSGSGSGTDFTLTISSLQPEDFATYYCQQYYSTPFTFGPGTKVEIKR
